Laboratory results: US10078082B2, “Detection of free and protein-bound non-human gal-alpha(1-3)-gal epitope” (National University of Ireland, Galway, priority 2012, dated 2018)
Where “and” joins values, the source holds several entries; their conditions need not be identical. Equal entries are not always repeated. Each block holds one molecule with its values, some of them ahead of it.

Tests used:
scFv A11 = assay: Competitive ELISA specificity study: inhibition of scFv binding to Gal-α-(1→3)-Gal-BSA by free sugars; design: species or system chicken; conditions: highest concentration 1 mg/mL
Protocol: (§1) Each scFv was evaluated in a competitive ELISA format using free Gal-α-(1,3)-Gal as standard. Microtitre plate wells were coated and blocked as previously described. Standard solutions were prepared in PBS (pH 7.2), ranging in concentration from 2 μg/ml (5.84 μM) to 20 mg/ml (58.4 mM). For the assay, 50 μl of each standard and buffer blank were added to designated wells in triplicate, followed by 50 μl of a sub-saturating concentration (1 μg/ml) of the appropriate scFv, giving a final standard concentration in the assay of 1 μg/ml (2.92 μM) to 10 mg/ml (29.2 mM). The plate was incubated for 1 hour at 37° C. with shaking After washing, bound scFv was detected as previously described. The ratios of the OD for each standard versus the OD given by the blank (B/Bo) were plotted versus standard concentration and standard curve plotted using SigmaPlot (v11, Systat Software Inc). The detection limits were determined as the concentration corresponding to the mean response for zero standard minus three times the standard deviation (SD). Inhibition of scFv by a panel of free sugars. scFv binding to Gal-α-(1→3)-Gal-BSA was determined against a panel of 21 free form sugars; D-Cellibiose, Melibiose, D-Raffinose, Lactulose, Palatinose, β-Gentibiose, D+ Trehalose, D+ Turanose, L− Fructose, D+ Glucose, Sucrose, Galacto-N-biose, 4β-Galactobiose, gal-α(1-3)-gal-β-(1-4)-gal, gal-α(1-3)-gal-β-(1-4)-glc, gal-α(1-3)-gal-β-(1-4)-gal-all-3)-gal, Laminarbiose, β1-4-D-Xylobiose, N-Acetyl-D-glucoseamine (GlcNAc), Galactose, N-Acetyl-D-lactosamine (LacNAc), (sourced from Sigma Aldrich and Dextra, UK). Inhibitions were performed by serial dilutions of free sugars and a sub-saturating concentration scFv added to each dilution and pre-incubated for 60 minutes at 37° C., prior to performing ELISA against Gal-α-(1→3)-Gal-BSA as used throughout. The percent binding of the scFv was plotted against the […], and the 50% effective dose determined (ED50; dose of free sugar causing 50% displacement of the scFv).

scFv G12 = assay: as above; design: species or system chicken; conditions: highest concentration 1 mg/mL
Protocol: as §1

scFv A4 = assay: as above; design: species or system chicken; conditions: highest concentration 1 mg/mL
Protocol: as §1

[1] = Thermal denaturation monitored by far UV CD ellipticity; type: physicochemical
Protocol: (§2) Two types of experiments were performed: firstly, the near UV circular dichroism (CD) spectra of the scFvs in the absence and presence of 4 mM of both disaccharides have been compared. Secondly, the effect of the disaccharides on the thermal stability of the scFvs has been studied.
Samples were diluted in NaPi (10 mM)-NaCl (150 mM) pH 7.2 and either concentrated by ultrafiltration twice (for small amounts) or exhaustively dialyzed. CD spectra were acquired at 20° C. in a J-810 spectropolarimeter, equipped with a Peltier temperature control system, using a bandwidth of 1 nm, a scan rate of 20 nm/min and a response time of 4 s, collecting data every 0.2 nm and 3 accumulations for each spectrum. Near-UV spectra were registered at around 1.0 mg ml^−1 protein concentration in 1-cm path-length cells while far-UV spectra were recorded in 0.1 cm path-length quartz cells at a protein concentration of around 0.2 mg ml^−1. For all CD spectra, the corresponding buffer baseline was subtracted. […] Ellipticity changes were collected every 0.2° C. and spectra were collected every 10° C. The thermal denaturation profiles were fitted to a sigmoidal function using the equation:—
where Θ(T) represents the ellipticity at temperature T (Kelvin), ΘN the ellipticity of the native protein, n the number of transitions, ΔΘ1 the ellipticity increment of transition i, R the gas constant and Tmi and HDi the temperature at the transition midpoint (melting temperature) and the parameter which describes the cooperativity (slope) of the corresponding transition, respectively.
In the second set of experiments, the thermal stability of the scFvs in the absence and presence of the disaccharides was investigated. With this type of experiment, we were able to get: 1) the far UV CD spectra at increasing temperatures, which gave information on changes in the secondary structure of the proteins upon heating and 2) the profile of the change in ellipticity at a certain wavelength, also with increasing temperatures, that allowed the calculation of the temperature of transition (Tm). Direct comparison of the Tm in the absence and presence of sugar provided information about the effect of the sugar on the scFvs, a thermal stabilisation (i.e. an increase in the Tm in the presence of the sugar) being indicative of interaction.

[2] = NGC microarray specificity analysis (over 50 structures); type: binding; conditions: FIG. 8
Text: FIG. 8: Comparison of the specificity of selected scFv fragments A4, A11 and G12 against a panel of related NGCs compared directly to the specificity binding pattern of the lectin GS-1-B4, considered as highly specific for α-Gal residues.
The spectacular specificity of the scFvs has also been determined by analysis on an NGC microarray containing over 50 different structures. […] ScFv-based competitive ELISA. Competitive ELISAs were established with each of the three scFvs examined using as standard the free Gal-α-(1→3)-Gal disaccharide within the concentration range 0.001 to 10000 μg/ml (2.93 nM to 29.3 mM). […] A panel of 21 related sugars were tested in the scFv-based competitive assays (Table 1). […] All three scFvs were more reactive to the disaccharide than Gal-α-(1,3)-Gal-containing trisaccharides, as shown by lower inhibitory activity of the trisaccharides and supporting the results obtained in the direct ELISA.

[3] = scFv-based competitive ELISA, free Gal-α-(1→3)-Gal as standard, immobilized Gal-α-(1→3)-Gal-BSA; type: binding; conditions: free Gal-α-(1→3)-Gal disaccharide standard; plates coated with Gal-α-(1→3)-Gal-BSA 10 μg/ml; FIG. 6; listed as G12
Protocol: as §1, with “FIG. 6: Standard curves for competitive ELISA given by scFv clones G12, A4, and A11. Plates were coated with immobilized Gal-α-(1→3)-Gal-BSA [10 μg/ml] and incubated with 2.5 μg/ml of the scFvs in the presence of an increasing concentrations of free Gal-α-(1→3)-Gal. The error bars indicate the standard error of the mean of triplicate determinations. Each” for “Each”

[4] = Near UV circular dichroism interaction study with disaccharides; type: binding; conditions: pH 7.2, 20° C.
Protocol: The scFvs A4, A11 and G12 were used to check their interaction with Galα(1,3)Galβ1-OMe (Carbosynth) and with melibiose, the latter as negative control.
as §2
Samples were diluted in NaPi (10 mM)-NaCl (150 mM) pH 7.2 and either concentrated by ultrafiltration twice (for small amounts) or exhaustively dialyzed. CD spectra were acquired at 20° C. in a J-810 spectropolarimeter, equipped with a Peltier temperature control system, using a bandwidth of 1 nm, a scan rate of 20 nm/min and a response time of 4 s, collecting data every 0.2 nm and 3 accumulations for each spectrum. Near-UV spectra were registered at around 1.0 mg ml^−1 protein concentration in 1-cm path-length cells while far-UV spectra were recorded in 0.1 cm path-length quartz cells at a protein concentration of around 0.2 mg ml^−1. For all CD spectra, the corresponding buffer baseline was subtracted. Thermal stability was evaluated by measuring ellipticity changes at 208 nm while increasing temperature from 20 to 90° C., with a constant rate of 40° C./h. Ellipticity changes were collected every 0.2° C. and spectra were collected every 10° C. The thermal denaturation profiles were fitted to a sigmoidal function using the equation:—

[5] = +4 mM Galα(1,3)Galβ1-OMe, λ 208
[6] = +4 mM Galα(1,3)Galβ1-OMe, λ 218
[7] = in the presence of 4 mM Galα(1,3)Galβ1-OMe, 208 nm

Molecule: gal-α(1,3)-gal-BSA [gal-α(1,3)-gal-BSA (NGC)]
% Maximum inhibition at Max Conc A11 (scFv A11): 51.06% | % Maximum inhibition at Max Conc G12 (scFv G12): 33.93% | % Maximum inhibition at Max Conc A4 (scFv A4): 36.4%

B1: scFv G12: chicken anti-Gal-α-(1→3)-Gal single chain antibody fragment, Seq Id No. 3; clone F1 has the same sequence (protein)
scFv: QAALTQPSSVSANPGETVKITCSGGSYHYGWYQQKSPGSAPVTVIYSNNQRPSGIPSRFSGSTSDSTGTLTITGVQADDEAVYFCGSYDSSNTYAGIFGAGTTLTVLGQSSRSSSGGGSSGGGGSAVTLDESGGGFQTPGGALSLVCKASGFTFSSYSMQWVRQAPGKGLEFVAGIGNSDRYTYFGPAVKGRATISRDNGQSTLRLQLNNLRAEDTATYFCARSGDSGNGCTHPWCSADNINAWGHGTEVIVSSTSGQAGQ
modifications: Synthetic protein sequence for scFv-G12 antibody fragment for detecting non-human Gal-alpha(1-3)-Gal
HD [1, 5]: 71 ± 5 kcal/mol | Tm [1, 5]: 73.5 ± 0.3 °C | HD [1, 6]: 137 ± 24 kcal/mol | Tm [1, 6]: 74.3 ± 0.4 °C | HD ([1]; +4 mM melibiose, λ 218): 116 ± 16 kcal/mol | Tm ([1]; +4 mM melibiose, λ 218): 66.5 ± 0.3 °C | HD ([1]; Pure scFv, λ 208): 64 ± 4 kcal/mol | Tm ([1]; Pure scFv, λ 208): 64.7 ± 0.2 °C | HD ([1]; Pure scFv, λ 218): 116 ± 21 kcal/mol | Tm ([1]; Pure scFv, λ 218): 66.4 ± 0.4 °C | Change in cooperativity (HD) [1, 7]: +6.8 Kcal/mol | Stabilisation (increase in Tm) [1, 7]: 8.8 °C | Specificity for the Gal-α-(1→3)-Gal epitope compared with GS-1-B4 [2]: much higher specificity | ED50 [3]: 158 μg/ml and 0.46 mM | Change of near UV CD spectrum ([4]; 4 mM Galα(1,3)Galβ1-OMe): a clear change was detected | Change of near UV CD spectrum ([4]; 4 mM melibiose (negative control)): did not cause any significant changes

Continued, values first:

% Maximum inhibition at Max Conc A11 (scFv A11): 73.88% | % Maximum inhibition at Max Conc G12 (scFv G12): 83.03% | % Maximum inhibition at Max Conc A4 (scFv A4): 66.20%
Molecule: OC[C@H]1O[C@H](O[C@H]2[C@@H](O)[C@@H](CO)O[C@@H](O[C@H]3[C@H](O)[C@@H](O)C(O)O[C@@H]3CO)[C@@H]2O)[C@H](O)[C@@H](O)[C@H]1O (stereo partly drawn) [gal-α(1,3)-gal-β-(1,4)-glc]

% Maximum inhibition at Max Conc A11 (scFv A11): 78.41% | % Maximum inhibition at Max Conc G12 (scFv G12): 73.54% | % Maximum inhibition at Max Conc A4 (scFv A4): 73.48%
Molecule: OC[C@H]1O[C@H](O[C@H]2[C@@H](O)[C@@H](CO)O[C@@H](O[C@@H]3[C@H](O)[C@@H](O)[C@@H](O[C@H]4[C@@H](O)[C@@H](CO)OC(O)[C@@H]4O)O[C@@H]3CO)[C@@H]2O)[C@H](O)[C@@H](O)[C@H]1O (stereo partly drawn) [gal-α(1,3)-gal-β-(1,4)-gal-α-(1,3)-gal]

% Maximum inhibition at Max Conc A11 (scFv A11): 76.83% | % Maximum inhibition at Max Conc G12 (scFv G12): 64.43% | % Maximum inhibition at Max Conc A4 (scFv A4): 68.18%
Molecule: OCC1OC(OC2C(O)C(CO)OC(OC3C(CO)OC(O)C(O)C3O)C2O)C(O)C(O)C1O (stereo not drawn) [gal-α-(1,3)-gal-β-(1,4)-gal]
